Data reported in patent publication US20240261333A1 (published 2024).

Tests used:
Assay in all cases: co-IP, anti-FLAG, lysate of cells with N-FLAG B3GNT2; mass spectrometry
[1] = target: T1, MYH11 (human, UniProt P35749-3 1-1945, limits assumed)
T1 construct: also called NP_001035202.1 (+4)

[2] = target: T2, LMNA (human, UniProt P02545 1-646, limits assumed)
T2 construct: also called NP_733821.1
T2 sequence (looked up): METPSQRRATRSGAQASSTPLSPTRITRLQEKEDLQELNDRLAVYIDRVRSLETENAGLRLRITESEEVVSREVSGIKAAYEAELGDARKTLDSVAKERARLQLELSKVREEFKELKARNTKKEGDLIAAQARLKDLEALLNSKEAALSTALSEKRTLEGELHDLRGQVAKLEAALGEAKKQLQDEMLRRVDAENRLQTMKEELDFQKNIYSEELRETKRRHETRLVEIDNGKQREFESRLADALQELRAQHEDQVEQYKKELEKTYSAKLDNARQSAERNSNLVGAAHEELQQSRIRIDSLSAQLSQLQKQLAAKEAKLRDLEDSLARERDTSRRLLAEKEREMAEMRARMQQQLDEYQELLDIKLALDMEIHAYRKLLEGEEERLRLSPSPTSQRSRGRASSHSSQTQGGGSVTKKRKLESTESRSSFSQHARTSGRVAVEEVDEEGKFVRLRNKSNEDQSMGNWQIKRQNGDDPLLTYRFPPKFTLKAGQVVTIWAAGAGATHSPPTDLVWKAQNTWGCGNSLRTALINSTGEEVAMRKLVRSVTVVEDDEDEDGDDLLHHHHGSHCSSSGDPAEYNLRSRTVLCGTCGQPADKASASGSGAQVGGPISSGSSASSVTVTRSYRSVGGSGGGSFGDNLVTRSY

[3] = target: T3, UBAP2L (human, UniProt Q14157 1-1087)
T3 construct: also called NP_055662.3 (+3)
T3 sequence (looked up): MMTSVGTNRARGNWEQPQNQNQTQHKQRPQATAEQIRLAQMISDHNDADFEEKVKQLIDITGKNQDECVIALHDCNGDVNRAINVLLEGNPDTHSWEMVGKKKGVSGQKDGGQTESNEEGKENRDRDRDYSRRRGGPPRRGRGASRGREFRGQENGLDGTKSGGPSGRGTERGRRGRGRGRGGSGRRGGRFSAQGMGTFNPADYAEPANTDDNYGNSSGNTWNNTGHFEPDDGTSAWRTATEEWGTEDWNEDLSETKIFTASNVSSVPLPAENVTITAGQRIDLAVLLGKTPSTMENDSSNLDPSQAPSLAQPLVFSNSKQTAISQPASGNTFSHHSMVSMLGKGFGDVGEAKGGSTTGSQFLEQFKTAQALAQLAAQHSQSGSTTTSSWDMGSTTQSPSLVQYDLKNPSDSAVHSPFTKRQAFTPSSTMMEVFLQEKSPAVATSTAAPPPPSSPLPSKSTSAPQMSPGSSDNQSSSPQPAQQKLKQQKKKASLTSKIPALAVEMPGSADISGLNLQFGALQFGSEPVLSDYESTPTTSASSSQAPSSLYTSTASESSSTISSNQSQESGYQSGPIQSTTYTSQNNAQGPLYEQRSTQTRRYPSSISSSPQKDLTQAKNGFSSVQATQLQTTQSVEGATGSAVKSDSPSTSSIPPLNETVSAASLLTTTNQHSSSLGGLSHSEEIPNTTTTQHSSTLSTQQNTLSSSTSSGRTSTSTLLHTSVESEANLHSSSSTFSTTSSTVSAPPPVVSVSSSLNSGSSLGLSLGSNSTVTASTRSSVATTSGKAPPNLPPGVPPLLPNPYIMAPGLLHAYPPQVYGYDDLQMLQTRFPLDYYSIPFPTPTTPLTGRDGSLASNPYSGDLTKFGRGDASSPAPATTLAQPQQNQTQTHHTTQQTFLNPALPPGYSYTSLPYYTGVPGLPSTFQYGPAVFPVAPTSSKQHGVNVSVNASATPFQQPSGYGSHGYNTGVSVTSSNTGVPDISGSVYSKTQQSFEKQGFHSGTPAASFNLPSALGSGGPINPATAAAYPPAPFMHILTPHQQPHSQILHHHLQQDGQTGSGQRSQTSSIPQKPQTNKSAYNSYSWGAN

[4] = target: T4, SPTAN1 (human, UniProt Q13813-2 1-2477, limits assumed)
T4 construct: also called NP_001123910.1 (+10)

[5] = target: T5, ATXN2 (human, UniProt Q99700 1-1313)
T5 construct: also called NP_002964.3
T5 sequence (Q99700 whole entry): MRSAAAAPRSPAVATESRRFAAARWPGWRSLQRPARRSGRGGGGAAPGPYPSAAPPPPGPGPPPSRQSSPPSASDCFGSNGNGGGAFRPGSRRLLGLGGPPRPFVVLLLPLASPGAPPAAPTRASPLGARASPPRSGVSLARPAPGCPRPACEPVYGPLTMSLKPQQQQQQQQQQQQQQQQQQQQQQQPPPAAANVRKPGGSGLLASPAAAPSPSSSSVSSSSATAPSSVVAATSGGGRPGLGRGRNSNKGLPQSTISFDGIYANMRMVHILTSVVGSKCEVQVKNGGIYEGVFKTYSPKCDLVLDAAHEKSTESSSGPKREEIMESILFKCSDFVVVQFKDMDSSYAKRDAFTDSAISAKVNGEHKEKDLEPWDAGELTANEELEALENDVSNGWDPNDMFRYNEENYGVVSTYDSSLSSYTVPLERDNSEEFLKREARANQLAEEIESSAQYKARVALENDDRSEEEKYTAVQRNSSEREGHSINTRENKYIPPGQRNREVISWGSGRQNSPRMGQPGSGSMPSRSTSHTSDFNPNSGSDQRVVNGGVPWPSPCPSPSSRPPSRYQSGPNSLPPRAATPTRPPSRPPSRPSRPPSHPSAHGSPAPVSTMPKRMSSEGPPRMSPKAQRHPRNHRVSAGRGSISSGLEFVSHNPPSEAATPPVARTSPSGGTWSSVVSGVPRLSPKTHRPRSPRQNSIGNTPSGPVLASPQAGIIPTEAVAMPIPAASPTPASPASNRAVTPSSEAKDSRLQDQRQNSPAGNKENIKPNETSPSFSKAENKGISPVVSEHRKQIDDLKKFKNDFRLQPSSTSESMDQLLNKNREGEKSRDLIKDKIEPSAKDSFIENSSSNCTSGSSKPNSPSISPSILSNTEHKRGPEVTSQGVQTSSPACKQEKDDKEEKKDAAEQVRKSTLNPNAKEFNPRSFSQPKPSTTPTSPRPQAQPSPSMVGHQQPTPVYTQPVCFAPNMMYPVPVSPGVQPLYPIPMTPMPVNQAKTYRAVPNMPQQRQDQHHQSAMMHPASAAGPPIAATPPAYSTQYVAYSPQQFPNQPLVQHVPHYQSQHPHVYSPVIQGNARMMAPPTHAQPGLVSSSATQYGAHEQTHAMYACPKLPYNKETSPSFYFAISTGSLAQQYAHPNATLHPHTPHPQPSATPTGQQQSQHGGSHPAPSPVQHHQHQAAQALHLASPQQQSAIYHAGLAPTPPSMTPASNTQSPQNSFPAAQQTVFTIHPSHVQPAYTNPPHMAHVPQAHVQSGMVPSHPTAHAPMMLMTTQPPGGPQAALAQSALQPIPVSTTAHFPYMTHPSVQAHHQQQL

T1 sequence (P35749 other isoform, or with tags, fused parts or gaps limits assumed): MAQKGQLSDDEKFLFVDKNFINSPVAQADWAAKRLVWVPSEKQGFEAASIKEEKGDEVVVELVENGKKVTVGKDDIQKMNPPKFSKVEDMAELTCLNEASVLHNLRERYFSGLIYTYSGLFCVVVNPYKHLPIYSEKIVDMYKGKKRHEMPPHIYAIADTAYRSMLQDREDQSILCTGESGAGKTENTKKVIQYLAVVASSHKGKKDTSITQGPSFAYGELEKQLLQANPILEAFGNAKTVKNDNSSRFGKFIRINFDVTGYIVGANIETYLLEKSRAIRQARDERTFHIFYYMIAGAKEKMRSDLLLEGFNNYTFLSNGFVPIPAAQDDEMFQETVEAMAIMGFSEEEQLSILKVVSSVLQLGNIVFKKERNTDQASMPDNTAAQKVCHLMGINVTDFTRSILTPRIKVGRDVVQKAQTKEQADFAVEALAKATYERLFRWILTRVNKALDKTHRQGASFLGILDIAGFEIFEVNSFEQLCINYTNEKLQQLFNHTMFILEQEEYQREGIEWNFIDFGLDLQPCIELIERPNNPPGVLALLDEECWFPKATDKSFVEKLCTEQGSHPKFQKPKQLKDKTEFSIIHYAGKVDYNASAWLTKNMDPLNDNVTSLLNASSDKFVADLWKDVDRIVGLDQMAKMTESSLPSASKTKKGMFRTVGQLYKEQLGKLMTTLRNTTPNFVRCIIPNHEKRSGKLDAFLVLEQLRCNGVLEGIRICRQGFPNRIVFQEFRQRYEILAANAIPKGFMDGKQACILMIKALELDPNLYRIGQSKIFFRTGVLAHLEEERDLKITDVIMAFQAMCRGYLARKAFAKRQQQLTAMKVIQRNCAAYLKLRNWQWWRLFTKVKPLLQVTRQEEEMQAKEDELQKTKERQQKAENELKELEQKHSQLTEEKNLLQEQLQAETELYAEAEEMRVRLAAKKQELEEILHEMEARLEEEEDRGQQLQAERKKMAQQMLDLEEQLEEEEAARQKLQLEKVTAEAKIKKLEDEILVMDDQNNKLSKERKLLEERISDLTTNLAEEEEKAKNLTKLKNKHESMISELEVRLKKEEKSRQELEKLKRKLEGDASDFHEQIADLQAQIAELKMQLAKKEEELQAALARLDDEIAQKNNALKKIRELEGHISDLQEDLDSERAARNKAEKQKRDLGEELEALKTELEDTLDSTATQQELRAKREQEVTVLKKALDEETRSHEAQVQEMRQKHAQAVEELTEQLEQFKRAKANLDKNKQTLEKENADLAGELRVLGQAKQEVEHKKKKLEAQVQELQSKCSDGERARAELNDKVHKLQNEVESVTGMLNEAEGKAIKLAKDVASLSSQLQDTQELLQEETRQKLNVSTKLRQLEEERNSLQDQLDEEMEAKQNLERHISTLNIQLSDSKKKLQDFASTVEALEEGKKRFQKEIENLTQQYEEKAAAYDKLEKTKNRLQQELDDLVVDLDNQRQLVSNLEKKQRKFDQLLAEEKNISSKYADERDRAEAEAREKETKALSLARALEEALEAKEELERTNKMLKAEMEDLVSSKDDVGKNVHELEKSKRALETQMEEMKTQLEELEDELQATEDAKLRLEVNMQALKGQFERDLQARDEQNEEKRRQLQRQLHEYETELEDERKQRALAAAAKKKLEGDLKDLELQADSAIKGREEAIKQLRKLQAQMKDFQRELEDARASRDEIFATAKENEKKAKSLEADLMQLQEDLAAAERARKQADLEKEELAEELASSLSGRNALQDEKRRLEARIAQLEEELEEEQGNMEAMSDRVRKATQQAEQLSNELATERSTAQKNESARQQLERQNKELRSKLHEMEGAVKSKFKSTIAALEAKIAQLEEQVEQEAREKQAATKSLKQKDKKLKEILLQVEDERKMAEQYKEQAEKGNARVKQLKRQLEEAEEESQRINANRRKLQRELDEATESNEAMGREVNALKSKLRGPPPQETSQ

co-IP mass spectrometry count [1]: 2
co-IP mass spectrometry count [2]: 11
co-IP mass spectrometry count [3]: 20
co-IP mass spectrometry count [4]: 0
co-IP mass spectrometry count [5]: 4
B1: N-terminal FLAG tagged B3GNT2 (enzyme, human, UniProt Q9NY97 1-397, looked up)
chain: MSVGRRRIKLLGILMMANVFIYFIMEVSKSSSQEKNGKGEVIIPKEKFWKISTPPEAYWNREQEKLNRQYNPILSMLTNQTGEAGRLSNISHLNYCEPDLRVTSVVTGFNNLPDRFKDFLLYLRCRNYSLLIDQPDKCAKKPFLLLAIKSLTPHFARRQAIRESWGQESNAGNQTVVRVFLLGQTPPEDNHPDLSDMLKFESEKHQDILMWNYRDTFFNLSLKEVLFLRWVSTSCPDTEFVFKGDDDVFVNTHHILNYLNSLSKTKAKDLFIGDVIHNAGPHRDKKLKYYIPEVVYSGLYPPYAGGGGFLYSGHLALRLYHITDQVHLYPIDDVYTGMCLQKLGLVPEKHKGFRTFDIEEKNKNNICSYVDLMLVHSRKPQEMIDIWSQLQSAHLKC
notes: Overexpressed in cells and pulled down from the lysate with mouse anti-FLAG antibody; also called N-FLAG B3GNT2; N-term FLAG; not shown: N-terminal FLAG tag
